Test results reported in PMC3229523, “Identification of Lactoferricin B Intracellular Targets Using an Escherichia coli Proteome Chip” (PLoS ONE, 2011).
Ends that are not written are not given here. * marks the point of attachment. Biotin = O=C1N[C@H]2[C@H](CS[C@H]2CCCCC(=O)*)N1

How the values were obtained:
Experiment in all cases: peptide or protein array; E. coli proteome chip: purified His-tagged proteins printed in duplicate on Fullmoon slides, blocked with 1% BSA; 10 nM N-terminal biotinylated LfcinB with 1% BSA, room temperature, 1 h; detected with DyLight 649-labeled streptavidin, ratio to DyLight 549-labeled anti-His antibody; ProCAT normalisation, local cut-off; triplicate chips
Conditions in all cases: both partners purified
[1] = molecular target: T1, YpdH (E. coli K-12, UniProt P69808 1-108)
T1 construct: YpdH, E. coli K-12
T1 sequence (looked up): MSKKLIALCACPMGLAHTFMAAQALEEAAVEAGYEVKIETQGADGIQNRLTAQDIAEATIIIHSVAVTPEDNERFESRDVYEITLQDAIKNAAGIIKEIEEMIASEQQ

[2] = molecular target: MalP (E. coli K-12, UniProt P00490 1-797)
[3] = molecular target: T2, adenylate cyclase CyaA (E. coli K-12, UniProt P00936 1-848)
T2 construct: CyaA, adenylate cyclase, E. coli K-12
T2 sequence (looked up): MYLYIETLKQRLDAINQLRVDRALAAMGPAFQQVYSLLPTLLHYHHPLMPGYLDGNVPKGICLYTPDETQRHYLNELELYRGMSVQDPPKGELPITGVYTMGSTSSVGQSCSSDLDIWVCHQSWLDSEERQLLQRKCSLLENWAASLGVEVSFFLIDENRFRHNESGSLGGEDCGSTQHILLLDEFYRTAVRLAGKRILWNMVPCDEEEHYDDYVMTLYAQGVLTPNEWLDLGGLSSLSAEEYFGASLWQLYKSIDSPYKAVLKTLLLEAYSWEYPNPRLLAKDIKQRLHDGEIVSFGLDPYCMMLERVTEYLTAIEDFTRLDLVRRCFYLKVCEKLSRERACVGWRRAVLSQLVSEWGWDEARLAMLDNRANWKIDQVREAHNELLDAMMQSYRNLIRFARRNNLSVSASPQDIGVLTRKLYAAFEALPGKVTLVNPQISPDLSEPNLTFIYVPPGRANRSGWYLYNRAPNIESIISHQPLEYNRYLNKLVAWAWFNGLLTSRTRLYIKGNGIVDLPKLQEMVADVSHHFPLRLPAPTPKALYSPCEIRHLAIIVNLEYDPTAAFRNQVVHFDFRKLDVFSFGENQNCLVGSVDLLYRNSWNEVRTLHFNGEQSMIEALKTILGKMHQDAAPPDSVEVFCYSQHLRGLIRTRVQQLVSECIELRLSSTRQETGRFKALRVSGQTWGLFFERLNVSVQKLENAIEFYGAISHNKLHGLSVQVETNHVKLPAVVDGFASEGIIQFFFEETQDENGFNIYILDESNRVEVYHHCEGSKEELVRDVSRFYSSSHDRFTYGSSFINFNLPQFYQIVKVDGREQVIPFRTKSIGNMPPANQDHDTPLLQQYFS

[4] = molecular target: T3, YcgK (E. coli K-12, UniProt P76002 23-133)
T3 construct: YcgK, E. coli K-12
T3 sequence (looked up): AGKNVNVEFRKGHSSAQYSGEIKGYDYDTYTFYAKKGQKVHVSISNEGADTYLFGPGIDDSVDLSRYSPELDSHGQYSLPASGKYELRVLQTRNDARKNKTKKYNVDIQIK

[5] = molecular target: T4, AmiA (E. coli K-12, UniProt P36548 35-289)
T4 construct: AmiA, E. coli K-12
T4 sequence (looked up): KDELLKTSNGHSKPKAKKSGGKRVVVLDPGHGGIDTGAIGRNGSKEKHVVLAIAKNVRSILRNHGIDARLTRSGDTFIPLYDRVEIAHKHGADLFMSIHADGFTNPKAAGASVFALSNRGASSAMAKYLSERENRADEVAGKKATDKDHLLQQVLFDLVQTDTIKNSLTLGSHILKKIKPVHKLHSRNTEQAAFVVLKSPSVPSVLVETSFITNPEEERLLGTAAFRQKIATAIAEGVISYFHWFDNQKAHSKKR

[6] = molecular target: T5, MdoG (E. coli K-12, UniProt P33136 23-511)
T5 construct: MdoG, E. coli K-12
T5 sequence (looked up): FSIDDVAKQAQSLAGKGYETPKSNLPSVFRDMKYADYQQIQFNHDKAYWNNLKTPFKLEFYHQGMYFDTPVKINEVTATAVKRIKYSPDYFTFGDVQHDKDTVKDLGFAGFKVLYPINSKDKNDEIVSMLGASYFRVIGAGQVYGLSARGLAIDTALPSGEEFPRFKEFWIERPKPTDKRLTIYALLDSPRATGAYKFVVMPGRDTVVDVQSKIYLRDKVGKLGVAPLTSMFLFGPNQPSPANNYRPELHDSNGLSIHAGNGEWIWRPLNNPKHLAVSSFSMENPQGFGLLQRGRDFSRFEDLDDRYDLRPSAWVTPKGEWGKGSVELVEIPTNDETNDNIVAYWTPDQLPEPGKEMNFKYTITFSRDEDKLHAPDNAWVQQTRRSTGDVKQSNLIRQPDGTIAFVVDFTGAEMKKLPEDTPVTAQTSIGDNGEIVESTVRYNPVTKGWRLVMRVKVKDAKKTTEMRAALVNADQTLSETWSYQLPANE

Measured: binding result

B1: N-terminal biotinylated Lactoferricin B (peptide, UniProt P24627 36-60, looked up)
peptide: Biotin-FKCRRWQWRMKKLGAPSITCVRRAF
modifications: ends and bridges not checked
notes: lactoferricin B (LfcinB), cationic antimicrobial peptide of 25 amino acids; also called biotinylated LfcinB; biotin-labeled LfcinB; source: bought: Kelowna Inc
binds: all assays above
